Changes are numbered by the printed parent chain. Numbers in names are those of the source.
T1: 33mer peptide (LQLQPFPQPQLPYPQPQLPYPQPQLPYPQPQPF)
T1 chain: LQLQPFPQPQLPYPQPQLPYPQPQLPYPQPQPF

T2: fluorescently quenched α-gliadin hexapeptide analogue QXL520-PQPQLP-K(5-FAM)-NH2
T2 chain: PQPQLP

B1: Homologue 14 (NCBI YP_001861188) (protein)
chain: HMTKHPLPGSERVLAPGSKVVAQCDPSETIEVVVVLRRKNEQQFAQMMKTIEAGAAGARPLTREELEQRFGALPEDIAKLKAFAAQHGLSVVREDASARTVVLSGRIEQFQQAFDVQLQHYEHQSMGRFRGRTGAISVPDELHGVVTAVLGLDDRPQARPHFRIRPPFQPARAQSASSFTPLQLASLYRFPQGDGSGQCIGIVELGGGYRTADLDSYFSSLGVGSPKVVAVGVDQSGNQPTGDPNGPDGEVTLDIEIAGALAPAATIAVYFTTNSDAGFIDAVSQAVHDRTNQPSVISISWGAPESMWTAQSMKALNDVLQSAAAIGVTVCAASGDSGSSDGVGDGRDHVDFPASSPYVLACGGTSLQGSGRTVAHEVVWNDGSNGGATGGGVSGAFPVPAWQEGLSTSAAQGGQRALTGRGVPDVAGDASPLTGYDVIVDGNNTVIGGTSAVAPLWAALIARINGAKGAPVGFVNPKLYKASACNDITQGNNGSYAATTGWDACTGLGSPDGVKVAAAL
B2: Homologue 13 (NCBI YP_004348568) (protein)
chain: MARHLHAGSEPKVITESKCIGACDPAERIHVTVMLRREGEQALDALVDKLASGDPAAKPVSREDFAKRFGARADDIQHTEAFAKRHQLTVERVDPVQSVVELAGTIAQFENAFGVKLEKYEHHAIGSFRARTGAIALPDELHDAVTAVLGLDTRPQAHPHFRFRPPFQPARSGAGTSYTPLQLASIYNFPEGDGAGQCIALVELGGGYRAADIRQYFEQLGVKPPKLVDVSVNGGRNAPTDDPNGPDGEVALDIEVAGAIAPGATIAVYFAGNSDAGFIQSVNQAIHDSTNRPSVVSISWGGPEASWTQQSITAFNNVLKTAASLGVTVCAASGDSGSSDGLQDGSNHVDFPASSPYVLACGGTTLDAQAGQGIRREVVWNDEAASGGAGGGGVSAVFPAPSYQKGLSAKATGGGSTPLSQRGVPDVAGDASPTTGYIISIAGTTAVLGGTSAVAPLWAALIARINANGKSPVGWANPKLYAQPGAFHDITQGNNGAFAASEGWDACTGLGSPDGAKVAAALQGASGGSQQGRATGA
B3: Homologue 26 (NCBI YP_004030750) (protein)
chain: MHSYLKQQSHMQSYLEQENHMRSYLEMRKKPYFDDLANIRPGGLTPAQVCQAYQFAKVQPVRPVKLGIVSLAGQYLSSDMSKAFTGYGLPTPVVSTAGSQVLGDLWSNVENMMDIEIAGAAWAYATGTAATLLMQFEPNNETGIPNAINALVAAGCEVISISWGAPANLQTMEAITARKEACKQAAVQNVHVFAASGDESLNDGTNSRTPDDPCCDPNVWGVGGTRLVLQADGSIAQESAWGDGNAADKGGGGGFDSREPLPDYQVGVVHSEHRGSPDSSANADPGTGYAIVANGQWLIGGGTSASAPLTAGYVAAILSTLPGPISQSVLQRKLYTAHKTAFRDILLGSNGAPARPGWEEATGLGSINGPGLAAALQS
B4: Homologue 12 (NCBI YP_003658449) (protein)
chain: MTQPRYTPLPGSEREAPLLAARSNATAARASRAQTASATVVLRRRSELPEALVLDQQFISSDELAARYGADPVDIEKVRSVLERFKVSVVEVDAASRRVKVEGAVADIERAFNIALHSASGTDPHSGRGFEYRYRTGVLSVPAELGGIVTAVLGLDNRRQAETRLRVVPAAALGSSYTPVQLGEIYNFPQDATGAGQRIAIIELGGGYTPAGLRRYFASLGVVPPKVAAVSVDGAQNAPGPDPGADGEVQLDVEVAGALAPGAHVLVYFAPNTDQGFLDAVSQAAHATPPPTAISISWGASEDSWTASARDALNQALRDAAALGVTVTAAAGDSGSSDGVPDRRAHVDFPASSPYVLATGGTSLRADPATGVVQSETVWNDSQGSTGGGVSDVFPRPAWQAHVDVPHAGRGVPDVSAVADPATGYQVLVDNQPAVIGGTSAVAPLWAALVARLAESLGRPLGLLQPLVYPRTPGSTAYPGFRDITIGNNGAYKAGKGWDAATGLGVPDGTELLAHLRGLNGSE
B5: Kumamolysin-As N291D, Q361D (protein)
chain: MSDMEKPWKEGEEARAVLQGHARAQAPQAVDKGPVAGDERMAVTVVLRRQRAGELAAHVERQAAIAPHAREHLKREAFAASHGASLDDFAELRRFADAHGLALDRANVAAGTAVLSGPVDAINRAFGVELRHFDHPDGSYRSYLGEVTVPASIAPMIEAVLGLDTRPVARPHFRMQRRAEGGFEARSQAAAPTAYTPLDVAQAYQFPEGLDGQGQCIAIIELGGGYDEASLAQYFASLGVPAPQVVSVSVDGASNQPTGDPSGPDGEVELDIEVAGALAPGAKFAVYFAPDTDAGFLDAITTAIHDPTLKPSVVSISWGGPEDSWTSAAIAAMNRAFLDAAALGVTVLAAAGDSGSTDGEDDGLYHVDFPAASPYVLACGGTRLVASGGRIAQETVWNDGPDGGATGGGVSRIFPLPAWQEHANVPPSANPGASSGRGVPDLAGNADPATGYEVVIDGEATVIGGTSAVAPLFAALVARINQKLGKAVGYLNPTLYQLPADVFHDITEGNNDIANRAQIYQAGPGWDPCTGLGSPIGVRLLQALLPSASQPQPGSTENLYFQSGALEHHHHHH
B6: Kumamolysin-As N291D, D293A, D358N (protein)
chain: B5 chain with D293A, D358N, D361Q
B7: Kumamolysin-As N291D, D293A, G319S, S354N, D358G, Q361D, D368H (protein)
chain: B5 chain with D293A, G319S, S354N, D358G, D368H
B8: Kumamolysin-As S262G, T292S, N291D, G319S, D358G, D368H (protein)
chain: B5 chain with S262G, T292S, G319S, D358G, D361Q, D368H
B9: Kumamolysin-As N291D, G319S, S354N, D358G, Q361D, D368H (protein)
chain: B5 chain with G319S, S354N, D358G, D368H
B10: Kumamolysin-As N291D, G319S, D358G, D368H (protein)
chain: B5 chain with G319S, D358G, D361Q, D368H
B11: Kumamolysin-As N291D, G319S, S354N, D358G, D368H (protein)
chain: B5 chain with G319S, S354N, D358G, D361Q, D368H
B12: Kumamolysin-As T292S, N291D, G319S, D358G, D368H (protein)
chain: B5 chain with T292S, G319S, D358G, D361Q, D368H
B13: Kumamolysin-As G319S, D368S (protein)
chain: B5 chain with D291N, G319S, D361Q, D368S
B14: Kumamolysin-As D293T, N291D, G319S, D358G, D368H (protein)
chain: B5 chain with D293T, G319S, D358G, D361Q, D368H
B15: Kumamolysin-As N291D, Q361D, D358G (protein)
chain: B5 chain with D358G
B16: Kumamolysin-As T357A (protein)
chain: B5 chain with D291N, T357A, D361Q
B17: Kumamolysin-As N291D, D293A, Q361D, D358N (protein)
chain: B5 chain with D293A, D358N
B18: Kumamolysin-As G319S, S354N, D358G, D368H (protein)
chain: B5 chain with D291N, G319S, S354N, D358G, D361Q, D368H
B19: Kumamolysin-As N291D, D358N (protein)
chain: B5 chain with D358N, D361Q
B20: Kumamolysin-As N291D (protein)
chain: B5 chain with D361Q
B21: Kumamolysin-As V119D, S262K, D293T, N291D, G319S, D358G, D368H (protein)
chain: B5 chain with V119D, S262K, D293T, G319S, D358G, D361Q, D368H
B22: Kumamolysin-As G319S, D358G, D368H (protein)
chain: B5 chain with D291N, G319S, D358G, D361Q, D368H
B23: Kumamolysin-As D358G (protein)
chain: B5 chain with D291N, D358G, D361Q
B24: Kumamolysin-As D358N (protein)
chain: B5 chain with D291N, D358N, D361Q
B25: Kumamolysin-As S354N, D358G, D368H (protein)
chain: B5 chain with D291N, S354N, D358G, D361Q, D368H
B26: Kumamolysin-As S262K, D293N, N291D, G319S, D358G, D368H (protein)
chain: B5 chain with S262K, D293N, G319S, D358G, D361Q, D368H
B27: Kumamolysin-As N291D, G319S, D358G, Q361D, D368H (protein)
chain: B5 chain with G319S, D358G, D368H
B28: Kumamolysin-As N291D, D293A, D358G, Q361D (protein)
chain: B5 chain with D293A, D358G
B29: Kumamolysin-As D293A (protein)
chain: B5 chain with D291N, D293A, D361Q
B30: Kumamolysin-As N291D, D293A (protein)
chain: B5 chain with D293A, D361Q
B31: Kumamolysin-As N291D, D293A, G319S, D358G, Q361D, D368H (protein)
chain: B5 chain with D293A, G319S, D358G, D368H
B32: Kumamolysin-As D358G, D368H (protein)
chain: B5 chain with D291N, D358G, D361Q, D368H

Target: T1, 33mer peptide …

| Protein | Degradation pattern of 33mer (60 min) | activity against the 33mer peptide |
| --- | --- | --- |
| B1 | WT-like - minor |  |
| B2 | Max-like | demonstrated significant activity against the 33mer peptide |
| B3 | Max-like | had very strong activity comparable to KumaMax™ at breaking down the 33mer peptide |
| B4 | WT-like |  |

Target: T2, fluorescently quenched α-gliadin …

| Protein | Fold Change in Activity of PQ Hydrolysis Relative to Wild Type Kumamolysin-As [fold] |
| --- | --- |
| B5 | 7.5 |
| B6 | 24 |
| B7 | 58 |
| B8 | 29 |
| B9 | 50 |
| B10 | 93 |
| B11 | 54.6 |
| B12 | 49 |
| B13 | 2 |
| B14 | 58 |
| B15 | 20 |
| B16 | 2 |
| B17 | 14.8 |
| B18 | 5 |
| B19 | 18.9 |
| B20 | 10 |
| B21 | 120 |
| B22 | 7 |
| B23 | 3 |
| B24 | 4 |
| B25 | 9 |
| B26 | 62 |
| B27 | 23.1 |
| B28 | 15 |
| B29 | 3 |
| B30 | 15 |
| B31 | 40.9 |
| B32 | 6 |

— patent publication US10487318
